Results from publication PMC8497620, “Structure and inhibition of Cryptococcus neoformans sterylglucosidase to develop antifungal agents” (Nature Communications, 2021).

What follows are substances tested against C. neoformans Sgl1 (Cryptococcus neoformans var. grubii, UniProt J9W473) (assay: H/D exchange mass spectrometry mapping of disordered regions). Conditions: H/D exchange MS of C. neoformans Sgl1; per peptide (amino acids Start-End, Sequence); Fig S2a.
Method: HDX-MS reactions were performed in a similar manner as is outlined in previous publications. HDX reactions were conducted in a final reaction volume of 50 µL with a final Sgl1 concentration of 0.6 µM (30 pmol). Exchange was carried out in triplicate for a single time point (3 s at 4 °C). Hydrogen deuterium exchange was initiated by the addition of 48 µL of D2O buffer (100 mM NaCl (20 mM pH 6.0 Bis-Tris), 90.5% D2O (V/V) to 1 µL of protein and 1 µL of H2O. Exchange was terminated by the addition of ice-cold acidic quench buffer, resulting in a final concentration of 0.6 M guanidine-HCl and 0.9% FA post quench. Samples were immediately frozen in liquid nitrogen and stored at −80 °C. Fully deuterated samples were generated by first denaturing the protein in 2 M guanidine for 5 min at 20 °C. Following denaturing, 48 µL of D2O buffer was added to the denatured protein and allowed to incubate for 5 min at 20 °C before quenching. Samples were flash frozen and stored at −80 °C until injection onto the ultra-performance liquid chromatography (UPLC) system for proteolytic cleavage, peptide separation, and injection onto a QTOF for mass analysis.
Protein sample was rapidly thawed and injected onto a UPLC system kept in a cold box at 2 °C. The protein was run over two immobilized pepsin columns (Applied Biosystems; Porosyme 2-3131-00) and the peptides were collected onto a VanGuard Precolumn trap (Waters). The trap was eluted in line with an ACQUITY 1.7 μm particle, 100 × 1 mm^2 C18 UPLC column (Waters), using a gradient of 5–36% B (Buffer A 0.1% formic acid, Buffer B 100% acetonitrile) over 16 min. MS experiments were performed on an Impact QTOF (Bruker) and peptide identification was done by running tandem MS (MS/MS) experiments run in data-dependent acquisition mode. The resulting MS/MS dataset was analyzed using PEAKS7 (PEAKS) and a false discovery rate was set at 1% using a database of purified proteins and known contaminants. HDExaminer Software (Sierra Analytics) was used to automatically calculate the level of deuterium incorporation into each peptide. All peptides were manually inspected for correct charge state and presence of overlapping peptides. Deuteration levels were calculated using the centroid of the experimental isotope clusters, with correction for back exchange generated using the fully deuterated sample. The mass spectrometry proteomics data have been deposited to the ProteomeXchange Consortium via the PRIDE partner repository[31] with the dataset identifier PXD024981.

Sequence of C. neoformans Sgl1 (J9W473 entry or part of it): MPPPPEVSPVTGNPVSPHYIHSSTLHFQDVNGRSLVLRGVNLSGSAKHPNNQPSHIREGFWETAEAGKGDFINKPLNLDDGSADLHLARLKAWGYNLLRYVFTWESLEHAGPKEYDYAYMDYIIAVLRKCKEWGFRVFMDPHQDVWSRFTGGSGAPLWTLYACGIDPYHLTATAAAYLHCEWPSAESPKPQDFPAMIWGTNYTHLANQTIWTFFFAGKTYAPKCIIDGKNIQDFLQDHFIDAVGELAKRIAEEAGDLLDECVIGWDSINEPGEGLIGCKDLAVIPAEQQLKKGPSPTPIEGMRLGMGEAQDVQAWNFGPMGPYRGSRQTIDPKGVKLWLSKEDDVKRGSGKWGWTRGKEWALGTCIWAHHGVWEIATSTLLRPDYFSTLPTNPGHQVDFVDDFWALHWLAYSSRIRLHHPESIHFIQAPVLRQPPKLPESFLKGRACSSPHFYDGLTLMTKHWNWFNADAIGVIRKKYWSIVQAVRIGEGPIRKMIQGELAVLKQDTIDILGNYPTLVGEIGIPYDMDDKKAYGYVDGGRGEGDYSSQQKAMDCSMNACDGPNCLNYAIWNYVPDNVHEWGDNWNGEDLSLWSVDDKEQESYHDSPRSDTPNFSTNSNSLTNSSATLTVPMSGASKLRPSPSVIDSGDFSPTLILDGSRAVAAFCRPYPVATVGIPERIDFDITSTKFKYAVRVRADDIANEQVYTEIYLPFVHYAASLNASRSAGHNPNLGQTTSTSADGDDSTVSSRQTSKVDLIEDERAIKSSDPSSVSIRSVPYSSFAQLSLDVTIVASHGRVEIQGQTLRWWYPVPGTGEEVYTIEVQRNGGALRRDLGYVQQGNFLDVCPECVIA

First: AASLNASRSAGHNPNLGQTTSTSADGDD
Second: AASLNASRSAGHNPNLGQTTSTSADGDDSTVSSRQTSKVDL
The “% Deuterium incorporation, Average” value of the first is lower: 99.7% for the first, 100.9% for the second.

Going from AIWNYVPDNVHEWGDN to AKRIAEE, the “% Deuterium incorporation, Average” value falls from 23.9% to 1.8%.

Going from AKRIAEEAGDL to AKRIAEEAGDLLDE, the “% Deuterium incorporation, Average” value rises from 9.2% to 12.0%.

Going from ANQTIWTF to ARLKAWGYNLL, the “% Deuterium incorporation, Average” value rises from -1.6% to 2.5%.

First: ASKLRPSPSV
Second: ASKLRPSPSVIDSGDFSPTL
The “% Deuterium incorporation, Average” value of the first is higher: 76.0% for the first, 47.3% for the second.

Going from ASKLRPSPSVIDSGDFSPTLIL to ATLTVPMSGASKLRPSPSVIDSGDFSPTL, the “% Deuterium incorporation, Average” value rises from 40.9% to 63.6%.

Compared with AVIPAEQQL, AVIPAEQQLKKGPSPTPIEG is lower in “% Deuterium incorporation, Average” value: 59.2% for the first, 30.1% for the second.

First: AVIPAEQQLKKGPSPTPIEGM
Second: AVLKQDTID
The “% Deuterium incorporation, Average” value of the first is higher: 29.8% for the first, 23.0% for the second.

First: AVLKQDTIDILGNYPTL
Second: AVRIGEGPIRKMIQGEL
The “% Deuterium incorporation, Average” value of the first is lower: 14.1% for the first, 20.2% for the second.

First: AVRVRADDIANE
Second: AYSSRIRLHHPESIHFI
The “% Deuterium incorporation, Average” value of the first is higher: 16.0% for the first, 3.1% for the second.

Compared with CIWAHHGVWE, CKDLAVIPAEQQLKKGPSPTPIEG is higher in “% Deuterium incorporation, Average” value: 1.8% for the first, 25.2% for the second.

Going from CVIGWDSINEPGEG to CVIGWDSINEPGEGLIGCKDL, the “% Deuterium incorporation, Average” value rises from 3.6% to 4.2%.

Compared with DAIGVIRKKYWSIVQA, DDGSADLHL is lower in “% Deuterium incorporation, Average” value: 36.2% for the first, 35.8% for the second.

Going from DDKKAYGYVDGGRGEGDYSSQQKAMD to DERAIKSSDPSS, the “% Deuterium incorporation, Average” value rises from 28.0% to 103.7%.

Going from DITSTKF to DITSTKFKYAVRVRA, the “% Deuterium incorporation, Average” value falls from 7.2% to 3.2%.

Compared with DITSTKFKYAVRVRADD, DITSTKFKYAVRVRADDIANE is higher in “% Deuterium incorporation, Average” value: 4.2% for the first, 9.0% for the second.

Going from DTIDILGNYPTL to DVQAWNFGPMGPYRGSRQTIDPKGVKL, the “% Deuterium incorporation, Average” value rises from 14.2% to 26.1%.

Compared with DVTIVASHGRVEIQGQT, DVTIVASHGRVEIQGQTL is lower in “% Deuterium incorporation, Average” value: 25.2% for the first, 21.1% for the second.

First: DVTIVASHGRVEIQGQTLRWWYPVPGTGE
Second: DVTIVASHGRVEIQGQTLRWWYPVPGTGEEV
The “% Deuterium incorporation, Average” value of the first is higher: 20.6% for the first, 19.0% for the second.

Compared with DVTIVASHGRVEIQGQTLRWWYPVPGTGEEVY, EIATSTL is higher in “% Deuterium incorporation, Average” value: 16.6% for the first, 59.2% for the second.

Going from EIYLPFVHY to ERAIKSSDPSS, the “% Deuterium incorporation, Average” value rises from 0.7% to 103.4%.

Compared with FCRPYPVA, FCRPYPVAT is lower in “% Deuterium incorporation, Average” value: 21.1% for the first, 4.6% for the second.

First: FCRPYPVATVGIPERIDF
Second: FLKGRACSSPHF
The “% Deuterium incorporation, Average” value of the first is lower: 5.0% for the first, 26.5% for the second.

Going from FSTLPTNPGHQVDF to GQTTSTSADGDDSTVSSRQTSKVDL, the “% Deuterium incorporation, Average” value rises from 50.7% to 102.4%.

Compared with HCEWPSAESPKPQDF, HCEWPSAESPKPQDFPAM is higher in “% Deuterium incorporation, Average” value: 58.4% for the first, 59.9% for the second.

Compared with HDSPRSDTPNF, IATSTLLRPDYFSTLPTNPGHQVDF is lower in “% Deuterium incorporation, Average” value: 91.2% for the first, 31.3% for the second.

First: IDAVGEL
Second: IDILGNYPTL
The “% Deuterium incorporation, Average” value of the first is lower: 5.7% for the first, 20.4% for the second.

Compared with IDSGDFSPTL, IDSGDFSPTLIL is lower in “% Deuterium incorporation, Average” value: 36.2% for the first, 26.0% for the second.

Compared with IEDERAIKSSDPSS, IEDERAIKSSDPSSV is higher in “% Deuterium incorporation, Average” value: 101.2% for the first, 101.6% for the second.

Going from IEDERAIKSSDPSSVS to IEDERAIKSSDPSSVSIRSVPYSSF, the “% Deuterium incorporation, Average” value falls from 106.2% to 100.4%.

First: IEVQRNGGAL
Second: IEVQRNGGALRRDLG
The “% Deuterium incorporation, Average” value of the first is lower: 28.7% for the first, 58.5% for the second.

Going from IGCKDLAVIPAEQQLKKGPSPTPIEG to IGWDSINEPGEGL, the “% Deuterium incorporation, Average” value falls from 24.8% to 4.5%.

Going from IGWDSINEPGEGLIGCKDL to IIDGKNIQD, the “% Deuterium incorporation, Average” value rises from 4.5% to 14.1%.

Compared with IIDGKNIQDFLQDHF, IKSSDPSS is higher in “% Deuterium incorporation, Average” value: 7.4% for the first, 106.2% for the second.

Compared with IKSSDPSSVSIRSVPYSSF, ILDGSRAVAA is lower in “% Deuterium incorporation, Average” value: 106.5% for the first, 26.4% for the second.

Compared with ILDGSRAVAAF, ILGNYPTL is higher in “% Deuterium incorporation, Average” value: 24.1% for the first, 27.3% for the second.

Compared with INKPLNL, INKPLNLDDGSADL is lower in “% Deuterium incorporation, Average” value: 46.8% for the first, 26.9% for the second.

Compared with INKPLNLDDGSADLHL, IQAPVLRQPPKLPES is higher in “% Deuterium incorporation, Average” value: 21.9% for the first, 35.7% for the second.

Compared with IQAPVLRQPPKLPESF, IQAPVLRQPPKLPESFL is lower in “% Deuterium incorporation, Average” value: 36.0% for the first, 31.8% for the second.

Going from IRKKYWSIVQAV to IYLPFVHY, the “% Deuterium incorporation, Average” value falls from 45.4% to 2.9%.

First: IYLPFVHYAASL
Second: KDLAVIPAEQQLKKGPSPTPIEG
The “% Deuterium incorporation, Average” value of the first is lower: 21.4% for the first, 24.0% for the second.

First: KGRACSSPHFYDGLTL
Second: KKAYGYVDGGRGEGDYSSQQKAMD
The “% Deuterium incorporation, Average” value of the first is lower: 28.7% for the first, 29.0% for the second.

Compared with KKGPSPTPIEG, KQDTIDILGNYPTL is higher in “% Deuterium incorporation, Average” value: 6.7% for the first, 22.4% for the second.

Compared with KYAVRVRADDIANE, LAVIPAEQQLKKGPSPTPIEG is higher in “% Deuterium incorporation, Average” value: 12.4% for the first, 28.2% for the second.

First: LAVIPAEQQLKKGPSPTPIEGM
Second: LAYSSRIRLHHPESIHF
The “% Deuterium incorporation, Average” value of the first is higher: 28.2% for the first, 4.9% for the second.

Going from LDVCPEC to LKKGPSPTPIEG, the “% Deuterium incorporation, Average” value falls from 80.8% to 11.2%.

Going from LRKCKEWGF to LRPDYFSTLPTNPGHQVDF, the “% Deuterium incorporation, Average” value rises from -8.6% to 37.3%.

Compared with LRWWYPVPGTGE, LRWWYPVPGTGEEV is lower in “% Deuterium incorporation, Average” value: 31.2% for the first, 23.5% for the second.

Compared with LRWWYPVPGTGEEVY, LSGSAKHPNNQPSHIREGF is higher in “% Deuterium incorporation, Average” value: 19.1% for the first, 54.3% for the second.

First: LTVPMSGASKLRPSPSV
Second: LTVPMSGASKLRPSPSVIDSGD
The “% Deuterium incorporation, Average” value of the first is higher: 86.0% for the first, 65.2% for the second.

Going from LTVPMSGASKLRPSPSVIDSGDFSPTL to LVLRGVN, the “% Deuterium incorporation, Average” value falls from 59.4% to 5.8%.

Compared with LVLRGVNL, LVLRGVNLSGSAKHPNNQPSH is higher in “% Deuterium incorporation, Average” value: 7.5% for the first, 28.6% for the second.

First: LVLRGVNLSGSAKHPNNQPSHIREGF
Second: MRLGMGEAQ
The “% Deuterium incorporation, Average” value of the first is higher: 33.7% for the first, 9.3% for the second.

Going from MRLGMGEAQDVQA to MRLGMGEAQDVQAWNFGPMGPYRGSRQTIDPKGVKL, the “% Deuterium incorporation, Average” value rises from 6.8% to 19.3%.

Going from MTKHWNWFNA to NACDGPNCLN, the “% Deuterium incorporation, Average” value falls from 29.9% to 19.4%.

Compared with NACDGPNCLNY, NADAIGVIRKKYWSIVQ is higher in “% Deuterium incorporation, Average” value: 17.8% for the first, 33.7% for the second.

Compared with NASRSAGHNPNLGQTTSTSADGDD, NASRSAGHNPNLGQTTSTSADGDDST is lower in “% Deuterium incorporation, Average” value: 102.3% for the first, 100.5% for the second.

First: NASRSAGHNPNLGQTTSTSADGDDSTVSSRQTSKVDL
Second: NASRSAGHNPNLGQTTSTSADGDDSTVSSRQTSKVDLIE
The “% Deuterium incorporation, Average” value of the first is higher: 102.1% for the first, 100.2% for the second.

First: NYAIWNYVPDNVHE
Second: NYVPDNVHE
The “% Deuterium incorporation, Average” value of the first is lower: 17.1% for the first, 30.1% for the second.

Compared with NYVPDNVHEWGDN, NYVPDNVHEWGDNW is lower in “% Deuterium incorporation, Average” value: 41.1% for the first, 32.4% for the second.

Compared with PVLRQPPKLPES, PVLRQPPKLPESF is higher in “% Deuterium incorporation, Average” value: 47.4% for the first, 50.6% for the second.

Going from PVLRQPPKLPESFL to PVTGNPVSPHYIHSSTL, the “% Deuterium incorporation, Average” value falls from 40.7% to 36.8%.

Going from PVTGNPVSPHYIHSSTLHF to QDVNGRS, the “% Deuterium incorporation, Average” value falls from 30.4% to 17.0%.

Compared with QLKKGPSPTPIEG, QQLKKGPSPTPIEG is higher in “% Deuterium incorporation, Average” value: 10.2% for the first, 10.8% for the second.

Compared with RADDIANE, RAIKSSDPSS is higher in “% Deuterium incorporation, Average” value: 33.8% for the first, 103.0% for the second.

First: RAIKSSDPSSV
Second: RAIKSSDPSSVS
The “% Deuterium incorporation, Average” value of the first is lower: 101.5% for the first, 104.6% for the second.
